A short description of the data set: soluble on expression in E. coli; label from the status in PepcDB or PDB records.
For “MTAAATTTVSTAAAMQTAALASLYSQAAVAIINNKGDVGKALKDLGTSDTVKQIVTSALTAGALNQMGADIAQLNSKVRTELFSSTGNQTIANLGGRLATNLSNAGISAGINTAVNGGSLKDNLGNAALGALVNSFQGEAASKIKTTFSDDYVAKQFAHALAGCVSGLVQGKCKDGAIGAAVGEIVAESILGGRNPATLSDAEKHKVISYSKIIAGSVAALNGGDLEHHHHHH”, the “soluble on expression in E. coli” value is “not soluble”. The same measure for “MMSMKIFETTAPHPEASLLTAFSKNALDRFAEKRTEECVAEALKVDGTHIFAFSGNRLVLKHDEQVIDPLFSAYELAELQPDFDNAVLLGYRETGEPRIAVPVAVAEDQLASHYKLADARTLYRDHLLDEELLSEVAQAVSLTHWNADNRFCGRCGGTMEQRIGGYKRICASCSHTIFPRTDPVVIMMTIDIERDLCLLGRGAHFASGMYSCLAGFVEPGETIEQAVRRETHEESGVEIGRVRYHASQPWPMPHTLMIGCYAEALSSDIARDEIELEDCRWFTREEVAKMLEAPAGEGFSAPPIGAIAHRLMRDWVEWPE”: “soluble”; for “MSLKGYYSNKISLEDLNKNIEDKKEQTIYFYQTSCVHCQKVSPIVVPLAKDLNVDMKVIDIENLNEPWDKYNIQGTPTIIHFKDGKEVSRISGEQSKDKFKEWFEQTKKEGHHHHHH”: “soluble”. In the case of “MSLYSVISKILNFILVKMSKSLYVIGKDNIPKDSKYVVTCTHESYNEVIMLGMALYPNQIHYMAKKELFKNKWIGKFLTSLNAFPVDRENPGPSTLKRPINLLKDNKTVGIFPTGSRTSQEGAPLKRGASTIAMLSKSPILPVAYVGPTKIHGLLTGQAYINIGKPIDINDLPKDLKRNERIDYITKEIETRTAKLQQELHEIVKSEGHHHHHH”, the “soluble on expression in E. coli” value was “soluble”. The same measure for “MGQGAPLFADKGGEIAALMRGAYFVAHNVDFDLPFLQAELERAGWPPFAGPTIDTVELARIVLPTAESYKLGDLARQLGLRHDRPHQADSDAEVTAKLFIALLKRLSRLPLMTLEQLRGLARHLKSDIYLLLDAVIAKKRNKAPADRAVAVYRGIALKQPAPEPDESDRRPALASFAAFCEQEPPLPLPGYKRRAGQWEMMRLVYEALSTSQHALIEAGTGLGKSLAYLIPAAFFACEQQERVVISTHTLQLQEQLIRRDWPVLRQIAPFPLRVAVLKGKQNYLSLDKFASFLSEPSDTYDAALLKCQVLVWLLETDSGDLDELNVSSGARLLLSALAIGEEEDGGRHHFFARAKERSERADVVITNHALLLHDLTGPAPLLPPFRHLIIDEAHRLEDAAARCFGEQIGYVSFRLLTAKIAQTIAKWQEAEQDAPNGALVRCQQRLEELQFEGDELFRLLRRYALDKKPARAGRCRYRFSPTDEQSRAWQAAVELCWRLRDLAAALSAEAKPLLSADTSGDFPPSALLSADLAALNRQMAALVRLLTEKEPGVVRWIEADEKGAANAVRLYSQPVDLADFFADQLFMKKRSVVLTSATLTVRGRFTYMAARLGLEDFYPLCRSFPPPFRYEEQAALFVPADMPLVSAVPLEDYAEAVAASVLAIARRLGRRVLVLFPSYELLKLTVDALKTEEEGEPFVLIAQGVQSGSPAKLLRTFLQFEHAVLFGTSSFWEGVDLPGSALDVLVIARLPFAPPDDPVMEAKSERIRLEGGDPFSELALPEAVLRFKQGFGRLIRTEDDKGAVFVLDRRLMASPYGADFLASLPPLSVHEGALSELLDKAETWLS”: “not soluble”. As to “MGHHHHHHSHMEGSFSDGGALPEGLAEEAEPQGAAWSGDSGTVSQSHSSASGPWEDEGAEDGAPGRDLPLLRRAAAGYAACLLPGAGARPEVEALDASLEDLLTRVDEFVGMLDMLRGDSSHVVSEGVPRIHAKAAEMRRIYSRIDRLEAFVRMVGGRVARMEEQVTKAEAELGTFPRAFKKLLHTMNVPSLFSKSAPSRPQQAGYEAPVLFRTEDYFPCCSERPQL”, the “soluble on expression in E. coli” value is “not soluble”.

On to “AETEKEKQDWIEAVQQSIAETLSDYEVAEKIWFNESNRSCADCKAPDPDWASINLCVVICKKCAGQHRSLGPKDSKVRSLKMDASIWSNELIELFIVIGNKRANDFWAGNLQKDEELHMDSPVEKRKNFITQKYKEGKFRKTLLASLTKEELNKALCAAVVKPDVLETMALLFSGADVMCATGDPVHSTPYLLAKKAGQSLQMEFLYHNKFSDFPQHDIHSEGVLSQESSQSTFLCDFLYQAPSAASKLSSEKKLLEETNKKWCVLEGGFLSYYENDKSTTPNGTININEVICLAIHKEDFYLNTGPIFIFEIYLPSERVFLFGAETSQAQRKWTEAIAKHFVPLFAENLTEADYDLIGQLFYKDCHALDQWRKGWFAMDKSSLHFCLQMQEVQGDRMHLRRLQELTISTMVQNGEKLDVLLLVEKGRTLYIHGHTKLDFTVWHTAIEKAAGTDGNALQDQQLSKNDVPIIVNSCIAFVTQYGLGCKYIYQKNGDPLHISELLESFKKDARSFKLRAGKHQLEDVTAVLKSFLSDIDDALLTKELYPYWISALDTQDDKERIKKYGAFIRSLPGVNRATLAAIIEHLYRVQKCSEINHMNAHNLALVFSSCLFQTKGQTSEEVNVIEDLINNYVEIFEVKEDQVKQMDIENSFITKWKDTQVSQAGDLLIEVYVERKEPDCSIIIRISPVMEAEELTNDILAIKNIIPTKGDIWATFEVIENEELERPLHYKENVLEQVLRWSSLAEPGSAYLVVKRFLTADTIKHCSDRSTLGSIKEGILKIKEEPSKILSGNKFQDRYFVLRDGFLFLYKDVKSSKHDKMFSLSSMKFYRGVKKKMKPPTSWGLTAYSEKHHWHLCCDSSQTQTEWMTSIFIAQHEYDIWPPAGKERKRSITKNPKIGGLPLIPIQHEGNATLARKNIESARAELERLRLSEKCDKESVDSSLKERASMVAHCLEHKDDKLRNRPRKHRSFNCLEDTEPEAPLGQPKGHKGLKTLRKTEDRNSKATLDSDHKLPSRVIEELNVVLQRSRTLPKELQDEQILK”, for which the “soluble on expression in E. coli” value is listed as “soluble”. Turning to “RNDTECDLCGGDPEKKCHSCSCRVCGGKHEPNMQLLCDECNVAYHIYCLNPPLDKVPEEEYWYCPSCKTD”, the “soluble on expression in E. coli” value is “soluble”. Regarding “MIGYLRGLAVIVEDVEFARRLYKEGFYGRFLGYDKVKRDEVEKINAPLILGLYEALYLAEKGRLKVMGEDGREVAPEELAALGRERMRNFDEIYKIYKYFRDLGYVVKSGLKFGALFSVYEKGPGIDHAPMVVVFLEPDKGISATDITRGGRLSHSVRKTWTLATVLRQTGEVVLLGFGWARL”, the “soluble on expression in E. coli” value is recorded as “soluble”. As for “MGSDKIHHHHHHMNTIEDNLNQRISARIRIERESRGWSLNDLAERAGASRAMIHKIERGESSPTASMLGRLSGAFGISMSTLIARAEMQEGKLLRFASQPVWRDPQSHYLRRHVSPRSDLPIDLVQIELPPGSDVPMPAASYALARQLIWLQQGELVFVEGNTRHEMQAGDCLELGPPNDCRFINESAETCVYLVVRLNQSPSGS”, the entry is “not soluble”. Turning to “MGSDKIHHHHHHMKNLLSTREVAQFLGVNEKMVYTLISDKGLPATKVTGKWLFPAHLVEQWVENSTINFPRRHESAPPAEGVLLVAGSNDILFERTLRLFMDAQPDYIAAFANMGSMGGIKALRRGVCHMATSHLKQEDGAEYNFAHAERELEERPAVVNFCLREQGLLVPRGNPAGISCVADVAGGGLTVANRPLGTGTRLLFDSELAAAGINPARLKGYENEFSRHMDVGLEVLSGRADTAPAIRAVAGLLGLDFIPLGWERFDLLIPRDTFFERHIQLFMGLFTTPEFAALAGQLEGYDTSRAGRVVFPGETLRETRR”, the “soluble on expression in E. coli” value is given as “not soluble”.

As to “IQKMANSFQKLASSVVLFETEINEFLVLFTDTKNKREESEPVRQVSTTQEYHQVTLDQQHYFNHKLSDYFRLFKDKTFFFEII”, the “soluble on expression in E. coli” value is listed as “not soluble”. As for “MVGEGEIELRNELPGGEVHAAWHLRYAGHDFFVKCDEREMLRGFTAEADQLELLSRSKTVVVPKVWAVGSDRDYSFLVMDYLSPRPLDAHNAFILGQQLARLHQWSDQPQFGLDFDNALSTTPQPNTWQRRWSTFFAEQRIGWQLELAAEKGITFGNIDAIVEHVQQRLASHQPQPSLLHGDLWSANCALGPDGPYIFDPACYWGDRECDLAMLPLHTDQPPQIYDGYQSVSPLPLDFLDRQPIYQLYTLLNRARLFGGQHLATAQKAMDRLLAVLEHHHHHH”, the entry is “not soluble”.

Consider “MPYPFKLPDLGYPYEALEPHIDAKTMEIHHQKHHGAYVTNLNAALEKYPYLHGVEVEVLLRHLAALPQDIQTAVRNNGGGHLNHSLFWRLLTPGGAKEPVGELKKAIDEQFGGFQALKEKLTQAAMGRFGSGWAWLVKDPFGKLHVLSTPNQDNPVMEGFTPIVGIDVWEHAYYLKYQNRRADYLQAIWNVLNWDVAEEFFKKA”, for which the “soluble on expression in E. coli” value is listed as “soluble”. The same measure for “MGSDKIHHHHHHMSDANVSRLGQANLSGDAKALFLKVFSGEVLTAFQESCVTADKHLVRTITSGKSAQFPILGKISAQYHTPGAEIAGLSVPANEQIITIDDLLISHAFIASIDEAMNHYDVRGPYSTEMGRALSYTYDKHILQLGVLAARASAPVSTEAGGGSVTDSALLTDTTGEALVAALFAAAQKLDEKFIPADERYAYLTPAAYYMLAQNTKLMNSLWGGQGSYAKGELPQVAGISLVKAVHAPFGSNIATVANGGTALTAGTSDKYAVDATSTAALVMHKAAVGTVKLMDLAMESDYDIRRQGTLMVAKYAMGHGILRPAAAVELKTA”: “not soluble”; for “MAHHHHHHMNGLRISTYFSAFKMRWMLENVPKVEEARKRGTLCFGTIDAWLLWKLSGGKVFVTDVTNASRTFLMDIRTCKWSPELCDKLGIPMACLPEIRSNSELLTYVLSDEGGLSAALRHPTPIMGSIADQQGALLGNMCFKEGESKNTYGTGCFLLMTVGEKIRFSSHGLLSTVAYQIGNKSPFIYALEGSIAGAGATIEWLKNNMKLIDDVSDCEKFAQTVSDTHGVVFVPAFSGFLAPSWDPSARGSIFGMTLKTTRAHVLRAALLAIALQVVDVLEAMEKDAEVKVQFLRVDGGLTKNHLLMKMQSDLLGINLHRPTMAETTALGAALCAGLAAGVWKSLEEVKTISQQANVWRVIRPAASKDSQQMLRAQWKRAKQQAKWAKL”: “not soluble”.

Take “MSLTIVAMNDVVKSFTGDIILEKVSLQLEEGERVGLIGRNGEGKSTILKILKGTEGVDSGIVTSKKGAKIGLLEQLSTVDPNIIVEQYLRTSFGELEELEKELRALEGEMATNSSEKLMNRYGDKMALFGELGGYEMDANLNKVVNGLGIGSLLSQRWGDLSGGEKTKVALAHLLLQKTDLLLLDEPTNHLDLMAVEWLTAFLQHYSGTVLVVSHDRYFLDEVVEKMVELENRELIVYHTNFSGYLKEREERLLREFQDYKDQQKKIKKMQQAIKRLRQWAMQANPPNDAMFRRAKNMERALERMEKVKRPVLTQKQMQLQFDEAGRSGQEVVVMENLSKSFSEKAIVQDVSLQIRQGERVAIIGENGAGKSTLLKIMEGKVVPDVGMIKVGASVKIASLSQQMEELNEKLTVLDAFRDKVAVTEGEARQMLAGFMFYGEMVFRKVGNISGGERMRLRLAQFINMPVNTLILDEPTNHLDIASREILEEAIRAFSGTIITVSHDRYFIDQLCSKVIWLENKQLTVYEGNYSYATSKREGHHHHHH”: the “soluble on expression in E. coli” value is on record as “not soluble”. The same measure for “MPTLKVAYIPEHFSTPLFFAQQQGYYKAHDLSIEFVKVPEGSGRLINLLNSNEVDIAIGLTEAFIADIAKGNENIHVLDTYVKSPLLWAVSTGSNRDDVTDAKQLKRIGVSRIGSGSYVMSFVLAHQLGVPSFDQFQVLSNFKNLRDSVNLKDGVEGSDAFMWEYFTSKKYYDNHEIKQIDQIYTPWSSWVVATSSDSLQAKSDVIKNFIDAVNQGIQYYNEHVDEAIEYISSNLDYSAEDAKEWTKTVEFNSRIGKTPLDWDTIVVKTKDTLKLAGVLAESDDVILKRLNSNVKKTNL”: “soluble”.
